This data set concerns the molecule itself. Nature of the data set: negative staining electron microscopy.

B1: SepF (purified, freed from MBP-SepF by factor Xa) (natural protein, B. subtilis, UniProt O31728 1-151, looked up)
chain: MSMKNKLKNFFSMEDEEYEYEYIETERESHEEHEQKEKPAYNGNKPAGKQNVVSLQSVQKSSKVVLSEPRVYAEAQEIADHLKNRRAVVVNLQRIQHDQAKRIVDFLSGTVYAIGGDIQRIGSDIFLCTPDNVDVSGTISELISEDEHQRW
With B1, the binding result is “binds”.
